Measured values: article PMC3575853 (Nucleic Acids Research, 2013)
Blank lines part the entries; values can stand above or below the binder they belong to.

Columns and labels:
[1] = biological target: RPA70 residues 181-616 (70ABC subunit of the human RPA DNA-binding core, RPA-DBC) (human, UniProt P27694 181-616); experiment: SEC-MALS
[2] = biological target: RPA-DBC (RPA70ABC/32D/14 DNA-binding core) (human, UniProt P27694;P15927;P35244 181-616;43-171;1-121); experiment: SANS / gel filtration
RPA-DBC (RPA70ABC/32D/14 DNA-binding core), sequence (P27694 181-616, chain 1 of 2): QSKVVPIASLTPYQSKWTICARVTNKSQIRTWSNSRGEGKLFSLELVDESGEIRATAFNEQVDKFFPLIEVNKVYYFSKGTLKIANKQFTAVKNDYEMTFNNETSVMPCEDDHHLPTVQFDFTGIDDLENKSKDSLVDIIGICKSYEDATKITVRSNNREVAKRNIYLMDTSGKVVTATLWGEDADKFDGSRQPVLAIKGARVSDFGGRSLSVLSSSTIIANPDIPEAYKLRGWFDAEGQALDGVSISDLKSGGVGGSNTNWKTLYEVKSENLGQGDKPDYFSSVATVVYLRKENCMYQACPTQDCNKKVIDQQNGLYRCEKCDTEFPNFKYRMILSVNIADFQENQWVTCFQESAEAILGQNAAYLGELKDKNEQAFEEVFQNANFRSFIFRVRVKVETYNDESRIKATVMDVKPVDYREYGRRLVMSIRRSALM
RPA-DBC (RPA70ABC/32D/14 DNA-binding core), sequence (P35244 whole entry, chain 3 of 2): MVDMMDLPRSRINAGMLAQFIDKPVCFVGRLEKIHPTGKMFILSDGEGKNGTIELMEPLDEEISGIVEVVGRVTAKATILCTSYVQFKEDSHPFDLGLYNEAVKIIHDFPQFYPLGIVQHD

RPA70 residues 181-616 (70ABC subunit of the human RPA DNA-binding core, RPA-DBC), sequence (P27694 181-616): as the sequence (P27694 181-616, chain 1 of 2) above

binding result [1]: binds
B1: RPA32 residues 43-171 (32D subunit of the human RPA DNA-binding core, RPA-DBC) (domain or fragment)
chain: AQHIVPCTISQLLSATLVDEVFRIGNVEISQVTIVGIIRHAEKAPTNIVYKIDDMTAAPMDVRQWVDTDDTSSENTVVPPETYVKVAGHLRSFQNKKSLVAFKIMPLEDMNEFTTHILEVINAHMVLSK

Binder: TTTTTTTTTTTTTTTTTTTTTTTTTTTTTT (ssDNA) [dT30]
binding result [2]: binds
